# From US7572450
# Side chains are listed from the residue outwards. Ends that are not written are not given here. maleimide = maleimide-activated rabbit IgG carrier, to which the peptide is conjugated through its cysteine; rabbit IgG = rabbit IgG carrier (maleimide-activated), conjugated to the peptide
# Molecular target: AD7C-NTP neural thread protein (purified recombinant AD7C-NTP)
# Experiment: cell-based or functional assay
row,Binder,"reduction in tissue necrosis (rat injection sites, histopathology at 24 hours) [%]"
1,LHARLCLANFCGRNRV (also: conjugated through a cysteine to maleimide-activated rabbit IgG) [Harlil sequence NTP-1],> 95
2,C([maleimide-rabbit IgG])ARYRTGHHARLM [Harlil sequence NTP-3],> 95
3,"DNTHHARLIL (also: conjugated to maleimide-activated rabbit IgG, mode not given here) [Harlil sequence NTP-7]",> 95
